To fix the notation:
B1: emerin (endogenous, wildtype myogenic progenitors) (natural protein, UniProt O08579 1-259, looked up)
chain: MDDYAVLSDTELAAVLRQYNIPHGPIVGSTRKLYEKKIFEYETQRRRLLPPNSSSSSFSYQFSDLDSAAVDSDMYDLPKKEDALLYQSKDYNDDYYEESYLTTKTYGEPESVGMSKSFRQPGTSLVDADTFHHQVRDDIFSSLEEEGKDRERLIYGQDSAYQSIAHYRPISNVSRSSLGLSYYPTSSTSSVSSSSSSPSSWLTRRAIRPEKQAPAAALGQDRQVPLWGQLLLFLVFAAFLLFVYYSIQAEEGNPFWMDP
notes: emerin, endogenous protein of H2K wildtype mouse myogenic progenitors; also called wildtype emerin; endogenous emerin; source: endogenous, H2K wildtype mouse myogenic progenitors, in lysate (soluble fraction)
B2: emerin S54F (EDMD1 mutant) (natural protein, UniProt P50402 1-254, looked up)
chain: MDNYADLSDTELTTLLRRYNIPHGPVVGSTRRLYEKKIFEYETQRRRLSPPSSFAASSYSFSDLNSTRGDADMYDLPKKEDALLYQSKGYNDDYYEESYFTTRTYGEPESAGPSRAVRQSVTSFPDADAFHHQVHDDDLLSSSEEECKDRERPMYGRDSAYQSITHYRPVSASRSSLDLSYYPTSSSTSFMSSSSSSSSWLTRRAIRPENRAPGAGLGQDRQVPLWGQLLLFLVFVIVLFFIYHFMQAEEGNPF
notes: emerin with the EDMD1-causing mutation S54F; also called S54F emerin
B3: emerin Q133H (EDMD1 mutant) (natural protein, UniProt P50402 1-254, looked up)
chain: B2 chain with F54S, Q133H
notes: emerin with the EDMD1-causing mutation Q133H; also called Q133H emerin
B4: EZH2 (enzyme)
chain: not shown
notes: EZH2, endogenous protein of mouse myogenic progenitors; also called catalytic component of PRC2; source: endogenous, mouse myogenic progenitors, in lysate (soluble fraction)
B5: euchromatic histone lysine methyltransferase 2 (G9a) (enzyme, UniProt Q9Z148 1-1263, looked up)
chain: MRGLPRGRGLMRARGRGRAAPTGGRGRGRGGAHRGRGRPRSLLSLPRAQASWAPQLPAGLTGPPVPCLPSQGEAPAEMGALLLEKEPRGAAERVHSSLGDTPQSEETLPKANPDSLEPAGPSSPASVTVTVGDEGADTPVGAASLIGDEPESLEGDGGRIVLGHATKSFPSSPSKGGACPSRAKMSMTGAGKSPPSVQSLAMRLLSMPGAQGAATAGPEPSPATTAAQEGQPKVHRARKTMSKPSNGQPPIPEKRPPEVQHFRMSDDMHLGKVTSDVAKRRKLNSGSLSEDLGSAGGSGDIILEKGEPRPLEEWETVVGDDFSLYYDAYSVDERVDSDSKSEVEALAEQLSEEEEEEEEEEEEEEEEEEEEEEEEEDEESGNQSDRSGSSGRRKAKKKWRKDSPWVKPSRKRRKREPPRAKEPRGVNGVGSSGPSEYMEVPLGSLELPSEGTLSPNHAGVSNDTSSLETERGFEELPLCSCRMEAPKIDRISERAGHKCMATESVDGELLGCNAAILKRETMRPSSRVALMVLCEAHRARMVKHHCCPGCGYFCTAGTFLECHPDFRVAHRFHKACVSQLNGMVFCPHCGEDASEAQEVTIPRGDGGTPPIGTAAPALPPLAHDAPGRADTSQPSARMRGHGEPRRPPCDPLADTIDSSGPSLTLPNGGCLSAVGLPPGPGREALEKALVIQESERRKKLRFHPRQLYLSVKQGELQKVILMLLDNLDPNFQSDQQSKRTPLHAAAQKGSVEICHVLLQAGANINAVDKQQRTPLMEAVVNNHLEVARYMVQLGGCVYSKEEDGSTCLHHAAKIGNLEMVSLLLSTGQVDVNAQDSGGWTPIIWAAEHKHIDVIRMLLTRGADVTLTDNEENICLHWASFTGSAAIAEVLLNAQCDLHAVNYHGDTPLHIAARESYHDCVLLFLSRGANPELRNKEGDTAWDLTPERSDVWFALQLNRKLRLGVGNRAVRTEKIICRDVARGYENVPIPCVNGVDGEPCPEDYKYISENCETSTMNIDRNITHLQHCTCVDDCSSSNCLCGQLSIRCWYDKDGRLLQEFNKIEPPLIFECNQACSCWRSCKNRVVQSGIKVRLQLYRTAKMGWGVRALQTIPQGTFICEYVGELISDAEADVREDDSYLFDLDNKDGEVYCIDARYYGNISRFINHLCDPNIIPVRVFMLHQDLRFPRIAFFSSRDIRTGEELGFDYGDRFWDIKSKYFTCQCGSEKCKHSAEAIALEQSRLARLDPHPELLPDLSSLPPINT
notes: G9a (EHMT2), endogenous protein of mouse myogenic progenitors; also called EHMT2; source: endogenous, mouse myogenic progenitors, in lysate (soluble fraction)

What all share (conditions): partners not purified
Assay [1] concerns the target B5. The assay is described as follows: co-IP; anti-G9a antibody on protein G magnetic beads, incubated overnight with the soluble fraction of sonicated whole-cell lysates (modified NEHN buffer, 500 mM NaCl, 1% NP-40) of proliferating myogenic progenitors; blot for emerin; densitometry, ratio of bound to input.
The assay “EZH2” concerns the target B4. Briefly: co-IP; anti-EZH2 antibody on protein G magnetic beads, incubated overnight with the soluble fraction of sonicated whole-cell lysates (modified NEHN buffer, 500 mM NaCl, 1% NP-40) of proliferating myogenic progenitors; blot for emerin; densitometry, ratio of bound to input.
Assay [2] deals with B2. The assay is described as follows: co-IP; anti-emerin antibody on protein G magnetic beads, incubated overnight with the soluble fraction of sonicated whole-cell lysates (modified NEHN buffer, 500 mM NaCl, 1% NP-40) of proliferating myogenic progenitors; blot for G9a or EZH2; densitometry, ratio of bound to input.
Assay [3] concerns the target B1. The assay is described as above.
Assay [4] has as its target B3. The assay is described as above.

This note sets out measurements from publication PMC9583931, “Emerin interacts with histone methyltransferases to regulate repressive chromatin at the nuclear periphery” (Frontiers in Cell and Developmental Biology, 2022).

Changes are numbered by the printed parent chain. Names may count otherwise.

Sequence of EZH2 (Q61188 whole entry): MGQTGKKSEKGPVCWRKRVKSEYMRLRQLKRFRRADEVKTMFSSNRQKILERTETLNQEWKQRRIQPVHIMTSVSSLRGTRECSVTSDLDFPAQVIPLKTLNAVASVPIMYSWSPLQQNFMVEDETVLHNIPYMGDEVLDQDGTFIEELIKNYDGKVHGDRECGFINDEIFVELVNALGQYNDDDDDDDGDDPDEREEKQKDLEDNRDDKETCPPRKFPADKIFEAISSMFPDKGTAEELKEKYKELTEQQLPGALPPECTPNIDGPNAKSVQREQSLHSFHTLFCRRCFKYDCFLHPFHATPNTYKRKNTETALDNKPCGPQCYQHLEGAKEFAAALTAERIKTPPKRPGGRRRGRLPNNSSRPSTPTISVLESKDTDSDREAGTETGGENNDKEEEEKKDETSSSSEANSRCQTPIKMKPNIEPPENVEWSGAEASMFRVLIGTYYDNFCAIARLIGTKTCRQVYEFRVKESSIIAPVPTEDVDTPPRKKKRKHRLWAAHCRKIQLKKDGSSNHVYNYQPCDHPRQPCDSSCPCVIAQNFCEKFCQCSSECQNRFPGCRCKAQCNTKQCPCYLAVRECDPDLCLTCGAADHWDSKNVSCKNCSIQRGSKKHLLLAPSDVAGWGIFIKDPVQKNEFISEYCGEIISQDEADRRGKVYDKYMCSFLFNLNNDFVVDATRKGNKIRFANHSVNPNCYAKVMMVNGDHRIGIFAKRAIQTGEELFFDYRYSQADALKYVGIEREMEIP

As to B1, the “percent of input bound” value in assay [1] is 0.76 % of input; with EZH2, 0.7%.
Regarding B2, the “percent of input bound” value is 80.9 % of input in assay [1] and 71.8% with EZH2.
The like results for B3 were, in that order, 45.1 % of input and 77.8%.
Consider B4, for which the figures for the “percent of input bound” value in assay [2], in assay [3] and in assay [4] were 57.9%, 2.4% and 89.4%, respectively.
On to B5, for which the “percent of input bound” value in assay [2] came to 13.8%; in assay [3], 0.2%; in assay [4], 9.6%.
